Data on four molecules can be found in patent publication US20110076248A1 (MYRIAD GENETICS, published 2011).

Assay [1] has as its target T1, activation domain-Tsg101 construct (full-length Tsg101 in GADpN2: SV40NLS-GAL4 (768-881)-Tsg101) (human, UniProt P04386 768-881; Q99816 1-390).
T1 sequence: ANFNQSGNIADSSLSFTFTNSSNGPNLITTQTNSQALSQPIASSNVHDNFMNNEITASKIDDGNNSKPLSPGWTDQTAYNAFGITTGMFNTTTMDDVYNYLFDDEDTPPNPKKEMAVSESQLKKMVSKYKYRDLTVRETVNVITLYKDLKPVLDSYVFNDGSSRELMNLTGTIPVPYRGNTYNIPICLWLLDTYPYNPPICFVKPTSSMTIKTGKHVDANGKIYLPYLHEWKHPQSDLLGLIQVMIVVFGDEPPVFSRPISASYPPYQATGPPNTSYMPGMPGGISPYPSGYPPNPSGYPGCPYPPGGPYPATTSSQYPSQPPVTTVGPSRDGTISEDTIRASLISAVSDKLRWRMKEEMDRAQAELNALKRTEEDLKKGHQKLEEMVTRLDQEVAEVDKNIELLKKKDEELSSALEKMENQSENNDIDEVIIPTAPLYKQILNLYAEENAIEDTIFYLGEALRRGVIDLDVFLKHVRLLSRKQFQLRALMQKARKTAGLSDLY
Put plainly: cell-based or functional assay.

Assay [2] deals with T1, activation domain-Tsg101 construct …. Put plainly: yeast two-hybrid, filter lift β-Gal assay.

B1: binding domain-wild type p6gag construct (HIV1 p6 peptide of the HIV1.NL43 strain GAG protein in pGBT.Q) (other)
chain: LQSRPEPTAPPEESFRFGEETTTPSQKQEPIDKELYPLASLRSLFGSDPSSQ
In the case of B1, the “β-galactosidase activity in the two-hybrid liquid culture assay” value in assay [1] is above 300 fold over background.

B2: binding domain-mutant p6gag construct p6(P7L) (other)
chain: LQSRPELTAPPEESFRFGEETTTPSQKQEPIDKELYPLASLRSLFGSDPSSQ
notes: The mutation number counts on p6gag
Consider B2, for which the binding result in assay [2] is on record as “no binding”.

B3: binding domain-mutant p6gag construct p6(P10L) (other)
chain: LQSRPEPTALPEESFRFGEETTTPSQKQEPIDKELYPLASLRSLFGSDPSSQ
notes: as for B2
Consider B3, for which the binding result in assay [2] is “no binding”.

B4: binding domain-mutant p6gag construct p6(A9R) (other)
chain: LQSRPEPTRPPEESFRFGEETTTPSQKQEPIDKELYPLASLRSLFGSDPSSQ
notes: as for B2
Consider B4, for which the binding result in assay [2] is “no binding”.
